Assays:
[1] = test system: T1, CCCCCC[C@@H](C(=O)O)C(=O)SCCNC(=O)CCNC(=O)[C@H](O)C(C)(C)COP(=O)(O)OP(=O)(O)OC[C@H]1O[C@@H](n2cnc3c(N)ncnc32)[C@H](O)[C@@H]1OP(=O)(O)O; assay: SucC/SucD - pyruvate kinase/lactate dehydrogenase coupled assay of CoA release; assay type: biochemical, Streptomyces platensis; conditions: hydrolysis
T1 construct: ketosynthase-acyltransferase (KS-AT) didomain of PnC, recombinant, purified
Text: (§1) SucC/SucD - pyruvate kinase/lactate dehydrogenase coupled assay of CoA release on PnC_KS-AT

[2] = test system: T2, CCCC[C@@H](C(=O)O)C(=O)SCCNC(=O)CCNC(=O)[C@H](O)C(C)(C)COP(=O)(O)OP(=O)(O)OC[C@H]1O[C@@H](n2cnc3c(N)ncnc32)[C@H](O)[C@@H]1OP(=O)(O)O; assay: as above; assay type: biochemical, Streptomyces platensis; conditions: hydrolysis
T2 construct: ketosynthase-acyltransferase (KS-AT) didomain of PnC, recombinant, purified
Text: as §1

[3] = test system: T3, CC(C)CC[C@@H](C(=O)O)C(=O)SCCNC(=O)CCNC(=O)[C@H](O)C(C)(C)COP(=O)(O)OP(=O)(O)OC[C@H]1O[C@@H](n2cnc3c(N)ncnc32)[C@H](O)[C@@H]1OP(=O)(O)O; assay: as above; assay type: biochemical, Streptomyces platensis; conditions: hydrolysis
T3 construct: ketosynthase-acyltransferase (KS-AT) didomain of PnC, recombinant, purified
Text: as §1

[4] = test system: T4, CC(C)(COP(=O)(O)OP(=O)(O)OC[C@H]1O[C@@H](n2cnc3c(N)ncnc32)[C@H](O)[C@@H]1OP(=O)(O)O)[C@@H](O)C(=O)NCCC(=O)NCCSC(=O)CC(=O)O; assay: as above; assay type: biochemical, Streptomyces platensis; conditions: hydrolysis
T4 construct: ketosynthase-acyltransferase (KS-AT) didomain of PnC, recombinant, purified
Text: as §1

[5] = test system: T5, CC[C@@H](C(=O)O)C(=O)SCCNC(=O)CCNC(=O)[C@H](O)C(C)(C)COP(=O)(O)OP(=O)(O)OC[C@H]1O[C@@H](n2cnc3c(N)ncnc32)[C@H](O)[C@@H]1OP(=O)(O)O; assay: as above; assay type: biochemical, Streptomyces platensis; conditions: hydrolysis
T5 construct: ketosynthase-acyltransferase (KS-AT) didomain of PnC, recombinant, purified
Text: as §1

[6] = test system: T6, C[C@@H](C(=O)O)C(=O)SCCNC(=O)CCNC(=O)[C@H](O)C(C)(C)COP(=O)(O)OP(=O)(O)OC[C@H]1O[C@@H](n2cnc3c(N)ncnc32)[C@H](O)[C@@H]1OP(=O)(O)O; assay: as above; assay type: biochemical, Streptomyces platensis; conditions: hydrolysis
T6 construct: ketosynthase-acyltransferase (KS-AT) didomain of PnC, recombinant, purified
Text: as §1

[7] = test system: T7, CC(C)(COP(=O)(O)OP(=O)(O)OC[C@H]1O[C@@H](n2cnc3c(N)ncnc32)[C@H](O)[C@@H]1OP(=O)(O)O)[C@@H](O)C(=O)NCCC(=O)NCCSC(=O)CC(=O)O; assay: as above; assay type: biochemical, Streptomyces platensis; conditions: hydrolysis
T7 construct: KS-AT didomain of PnB second module (Pn PKS module 3), recombinant, purified

[8] = test system: T7, CC(C)(COP(=O)(O)OP(=O)(O)OC[C@H]1O[C@@H](n2cnc3c(N)ncnc32)[C@H](O)[C@@H]1OP(=O)(O)O)[C@@H](O)C(=O)NCCC(=O)NCCSC(=O)CC(=O)O; assay: purified protein, by the assay type; set-up: SucC/SucD-coupled CoA-SH release assay, NADH absorbance 340 nm, apparent KM for transacylation to ACP; conditions: pH 7.4; 30.0 °C
Protocol: (§2) Acyltransferase steady state kinetic assay. The assay buffer (200 mM Tris, glycerol 5%v/v, 20 mM MgCl2, pH 7.4) was used to set up all other solutions for this assay. Four master mixes (MM1 to MM4) in 4x concentration were prepared. For MM1 containing the KS-AT proteins (KS-AT or KS-ATS->A mutants), the enzymes were adjusted to 2 µM (for transacylation) or to 4 µM (for hydrolysis) with assay buffer additionally containing 1 mM DTT and 0.1 mg/mL BSA. For MM2 highly pure and concentrated ACP were adjusted to 1600 µM concentration with the assay buffer. Substrate acyl-CoA containing MM3 was prepared with the assay buffer in varying substrate concentrations ranging from (4x concentration indicated here) 1 µM to 1 mM. MM4 contained 1.6 mM NADH, 20 mM ATP, 30 mM succinate, 10 mM phosphoenolpyruvate (stock solutions should be resuspended in assay buffer, or Tris 200 mM, pH 7.4). First, these compounds were mixed and assay buffer was added, leaving volume for Pyruvate Kinase/Lactic Dehydrogenase (PK/LDH), SucC and SucD. After mixing of the compounds, the enzymes were added to MM4 like following: 0.06 mM SucC, 0.06 mM SucD and 20% v/v of PK/LDH (Sigma-Aldrich) (40 µL PK/LDH for 200 µL MM4). To measure transacylation 25 µL MM3, 25 µL MM4, 25 µL MM2 were mixed and incubated 30 °C for one minute. The reaction was started using 25 µL MM1. To measure hydrolysis 25 µL MM3, 25 µL MM4, 25 µL assay buffer were mixed, incubated at 30 °C for one minute. The reaction was started with 25 µL MM1. In both cases after starting the reaction, the mixture was immediately transferred into a 1 cm quartz cuvette, preheated to 30 °C and the absorption was monitored at 340 nm with a Cary 60 UV vis (Agilent technologies). The reactions were measured in three to four technical replicates. Simultaneous to 16 Scheme S1: Steady state kinetic assay, relying on purified proteins. KS-AT didomains and standalone ACPs are used. Upon covalent binding of the acyl-residue to the AT, CoA-SH is released. With no ACP acceptor available, the acyl-residue is subsequently hydrolyzed by nucleophilic attack of water and the AT can bind a new acyl-residue. If holo-ACP is available, the acyl-residue is transferred and the AT can bind a new acyl-residue. Free CoA-SH is converted to succinyl-CoA by E. coli SucC/SucD. In this reaction ADP is produced, which can be used by pyruvate kinase/lactic dehydrogenase (PK/LDH) under NADH consumption. For Michaelis Menten plots with data collected with this assay refer to Figure S6. With the SucC/SucD‐based assay we determined kinetic parameters of PnB_KS‐AT1, PnB_KS‐AT2, PnC_KS‐AT and PnD_KS‐AT for hydrolysis and transacylation (Table S3, Figure S7). As negative control AT catalytic knockouts were used. […] These measurements were independently confirmed by mass spectrometric analysis of acylated ACPs, in which we exclusively detected malonyl‐ACP formation (Tables S1 and S4). […] K M between 4 μM to 11 μM. Rates for transacylation were between 10‐ to 35‐ fold higher (app. k cat of 28 min^−1–140 min^−1) at 2.5 to 7.7 fold higher catalytic efficiency (Table S3).

[9] = test system: T8, CC(C)(COP(=O)(O)OP(=O)(O)OC[C@H]1O[C@@H](n2cnc3c(N)ncnc32)[C@H](O)[C@@H]1OP(=O)(O)O)[C@@H](O)C(=O)NCCC(=O)NCCSC(=O)CC(=O)O; assay: SucC/SucD - pyruvate kinase/lactate dehydrogenase coupled assay of CoA release; assay type: biochemical, Streptomyces platensis; conditions: hydrolysis
T8 construct: KS-AT didomain of PnD, recombinant, purified

[10] = test system: T8, CC(C)(COP(=O)(O)OP(=O)(O)OC[C@H]1O[C@@H](n2cnc3c(N)ncnc32)[C@H](O)[C@@H]1OP(=O)(O)O)[C@@H](O)C(=O)NCCC(=O)NCCSC(=O)CC(=O)O; assay: purified protein, by the assay type; set-up: SucC/SucD-coupled CoA-SH release assay, NADH absorbance 340 nm, apparent KM for transacylation to ACP; conditions: pH 7.4; 30.0 °C
Protocol: as §2

[11] = test system: T9, CC(C)(COP(=O)(O)OP(=O)(O)OC[C@H]1O[C@@H](n2cnc3c(N)ncnc32)[C@H](O)[C@@H]1OP(=O)(O)O)[C@@H](O)C(=O)NCCC(=O)NCCSC(=O)CC(=O)O; assay: SucC/SucD - pyruvate kinase/lactate dehydrogenase coupled assay of CoA release; assay type: biochemical, Streptomyces platensis; conditions: hydrolysis
T9 construct: KS-AT didomain of PnB first module (Pn PKS module 2), recombinant, purified

[12] = test system: T9, CC(C)(COP(=O)(O)OP(=O)(O)OC[C@H]1O[C@@H](n2cnc3c(N)ncnc32)[C@H](O)[C@@H]1OP(=O)(O)O)[C@@H](O)C(=O)NCCC(=O)NCCSC(=O)CC(=O)O; assay: purified protein, by the assay type; set-up: SucC/SucD-coupled CoA-SH release assay, NADH absorbance 340 nm, apparent KM for transacylation to ACP; conditions: pH 7.4; 30.0 °C
Protocol: as §2

Substance: PnC_KS-AT (Streptomyces platensis)
- Km [1]: 19 ± 15.5 µM
- kcat [1]: 0.00667 ± 0.00133 s⁻¹
- kcat/Km [1]: 333 M⁻¹ s⁻¹
- Km [2]: 6.2 ± 1.4 µM
- kcat [2]: 0.0117 ± 0.000667 s⁻¹
- kcat/Km [2]: 1830 M⁻¹ s⁻¹
- Km [3]: 20 ± 6.7 µM
- kcat [3]: 0.0133 ± 0.00133 s⁻¹
- kcat/Km [3]: 667 M⁻¹ s⁻¹
- Km [4]: 53 ± 41 µM
- kcat [4]: 0.01 ± 0.0025 s⁻¹
- kcat/Km [4]: 167 M⁻¹ s⁻¹
- Km [5]: 6 ± 1.8 µM
- kcat [5]: 0.015 ± 0.001 s⁻¹
- kcat/Km [5]: 2500 M⁻¹ s⁻¹
- Km [6]: 73 ± 33 µM
- kcat [6]: 0.0233 ± 0.005 s⁻¹
- kcat/Km [6]: 333 M⁻¹ s⁻¹

Substance: PnB_KS-AT2 (Streptomyces platensis)
- Km [7]: 5.2 ± 0.8 µM
- kcat [7]: 0.05 ± 0.00233 s⁻¹
- Km [8]: 16 ± 1.7 µM
- kcat [8]: 1.23 ± 0.0333 s⁻¹

Substance: PnD_KS-AT (Streptomyces platensis)
- Km [9]: 11.5 ± 3.3 µM
- kcat [9]: 0.05 ± 0.0033 s⁻¹
- Km [10]: 44 ± 7.2 µM
- kcat [10]: 0.467 ± 0.03 s⁻¹

Substance: PnB_KS-AT1 (Streptomyces platensis)
- Km [11]: 4.3 ± 0.8 µM
- kcat [11]: 0.067 ± 0.0025 s⁻¹
- Km [12]: 27 ± 2.6 µM
- kcat [12]: 2.33 ± 0.0717 s⁻¹
- kcat/Km [12]: 86700 M⁻¹ s⁻¹
